Data from patent US20230220057A1 (STAIDSON BEIJING BIOPHARMACEUTICALS, published 2023).

T1: NT4 (UniProt P34130 81-210)
T1 construct: also called neurotrophin-4
T1 sequence (looked up): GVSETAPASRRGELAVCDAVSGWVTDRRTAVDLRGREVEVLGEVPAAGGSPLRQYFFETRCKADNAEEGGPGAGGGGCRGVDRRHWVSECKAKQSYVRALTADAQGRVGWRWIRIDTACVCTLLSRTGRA

T2: BDNF (UniProt P23560 129-247)
T2 construct: also called brain-derived neurotrophic factor
T2 sequence (looked up): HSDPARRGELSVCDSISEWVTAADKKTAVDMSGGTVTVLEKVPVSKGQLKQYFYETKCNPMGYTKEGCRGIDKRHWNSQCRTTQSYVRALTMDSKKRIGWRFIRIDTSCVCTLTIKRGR

T3: NT3 (UniProt P20783 139-257)
T3 construct: also called neurotrophin-3
T3 sequence (looked up): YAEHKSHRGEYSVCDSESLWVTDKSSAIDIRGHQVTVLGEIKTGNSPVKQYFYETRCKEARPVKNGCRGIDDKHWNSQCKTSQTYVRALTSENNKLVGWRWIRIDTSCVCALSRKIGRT


Legend:
[1] = target: recombinantly produced human-NGF (human, UniProt P01138 122-241, limits assumed); experiment: ELISA, human NGF coated, IgG titrated
recombinantly produced human-NGF, sequence (P01138 122-241 limits assumed): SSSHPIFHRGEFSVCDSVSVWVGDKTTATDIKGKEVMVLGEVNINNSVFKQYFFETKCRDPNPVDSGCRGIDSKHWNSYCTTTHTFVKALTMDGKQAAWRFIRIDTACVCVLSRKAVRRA
Method in brief: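 Plates coated overnight at 4 °C with recombinant human NGF at 1 μg/ml, blocked with PBS/1% BSA. Serially diluted purified antibodies or 1:1 supernatants bound 2 h at 37 °C; detection with AP anti-human IgG Fc (1:3000, 1 h RT), PNPP substrate, OD 405 nm.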

human NGF-Fc4 (IgG4-Fc) [2] = target: T4, human NGF-Fc4 (IgG4-Fc) (human, UniProt P01138 122-241, limits assumed); experiment: competition ELISA: antibody pre-incubated with human NGF-Fc4, binding to coated p75-Fc
T4 construct: not shown: human IgG4 Fc
T4 sequence (P01138 122-241 limits assumed): as above
Protocol: p75 inhibition ELISA assay: The p75 inhibition assay was designed to identify anti-NGF antibodies that were capable of inhibiting NGF binding to p75. In this assay, human p75-Fc (IgG1-Fc, Sinobiological) was coated at 1 μg/mL in the 96-well plates and incubated overnight at 4° C. Anti-NGF antibodies, from supernatants directly or after purified, in different dilutions, were pre-incubated with human NGF-Fc4 (IgG4-Fc) at a final concentration of 350 ng/mL for 2 hours in 37° C. A total of 50 μl of the reaction mixtures were then transferred into the p75-Fc coated 96-well plates and incubated in room temperature for 2 hrs. After washing, a secondary mouse anti-human IgG4-AP (Southern biotech) was added at a dilution of 1:1000. After 1 hour in room temperature, the plates were washed, and after adding PNPP substrate, ODs at 405 nm were read.
(§1) p75 inhibition ELISA assay: The optimized anti-NGF antibodies Ab4, Ab61, and the reference antibody Tanezumab, a humanized antibody from mouse hybridoma were further analyzed for their abilities to block NGF binding to its receptor p75. P75 inhibition assay was performed as described in Example 1.

human NGF-Fc4 (IgG4-Fc) [3] = target: T4, human NGF-Fc4 (IgG4-Fc); experiment: competition ELISA: antibody pre-incubated with human NGF-Fc4, binding to coated TrkA-Fc
Protocol: TrkA inhibition ELISA assay: The TrkA inhibition ELISA assay was designed to identify the anti-NGF antibodies that have the capability of blocking NGF binding to its receptor TrkA. In this assay, human TrkA-Fc (IgG1-Fc, Sinobiological) was coated at 1 μg/ml in the 96-well plates and incubated overnight at 4° C. Antibodies, from cell culture supernatants or after purified, in different dilutions, were pre-incubated with human NGF-Fc4 (IgG4-Fc) at a final concentration of 70 ng/mL for 2 hours in 37° C. A total of 50 μl of the reaction mixtures were then transferred into the TrkA-Fc coated 96-well plates and incubated in room temperature for 2 hours. After washing, a secondary mouse anti-human IgG4-AP (Southern biotech) was added at a dilution of 1:1000 After one hour in room temperature, the plates were washed, and after adding PNPP substrate, ODs at 405 nm were read.
as §1, with “TrkA” for “p75”, “Ab6, Ab10, Ab16, Ab36, Ab37, Ab44, Ab45, Ab46, Ab47, Ab48, Ab49, Ab52, Ab54, Ab55, Ab56, Ab57, Ab58, Ab59, Ab60, Ab61” for “Ab61,”, “Tanezumab (Pfizer),” for “Tanezumab,”, “TrkA. TrkA” for “p75. P75”

human NGF (R&D system) [4] = target: T5, human NGF (R&D system) (human, UniProt P01138 122-241); experiment: cell-based or functional assay
T5 sequence (P01138 122-241 limits assumed): as above

human NGF (R&D system) [5] = target: T5, human NGF (R&D system); experiment: cell-based or functional assay; remark: listed apart in the source
human NGF (R&D system) [6] = target: T5, human NGF (R&D system); experiment: cell-based or functional assay; remark: listed apart in the source
NT4 = target: T1, NT4; experiment: ELISA
BDNF = target: T2, BDNF; experiment: ELISA
NT3 = target: T3, NT3; experiment: ELISA

| EC50 [1] [ng/mL] | IC50 (human NGF-Fc4 (IgG4-Fc) [2]) [ng/mL] | IC50 (human NGF-Fc4 (IgG4-Fc) [3]) [ng/mL] | Chicken DRG Neurite Outgrowth Inhibition Assay IC50 (human NGF (R&D system) [4]) [nM] | ERK1/2 Signaling Pathway Inhibition Assay IC50 (PC12 cells) (human NGF (R&D system) [5]) [nM] | TF1 Cell Proliferation Inhibition Assay IC50 (human NGF (R&D system) [6]) [nM] | binding result (NT4) | binding result (BDNF) | binding result (NT3) | Binder |
| --- | --- | --- | --- | --- | --- | --- | --- | --- | --- |
| 0.0124 | 481 | 74.6 | 0.0663 | 0.131 | 0.174 | no binding (tested: 100 µg/mL) | no binding (tested: 100 µg/mL) | no binding (tested: 100 µg/mL) | Ab4 (antibody, human IgG1, V domains shown) VH: EVQLVQSGAEVKKPGATVKISCKVSGYTFITYWISWVQQAPGKGLEWMGAIDPSDSDARYSPSFQGRVTITADTSTDTAYMELSSLRSEDTAVYYCAKSDPGYSGYSLLYGFDSWGQGTLVTVSS VL: DVVMTQSPLSLPVTLGQPASISCRSSQSLVQRNGNTYLSWYQQRPGQSPRLLIYQVSNRYSGVPDRFSGSGSGTDFTLKISRVEAEDVGVYYCGQGAHLPLTFGQGTKVEIK |
| 0.014 | 577 | 70 | 0.0786 | 0.175 | 0.346 |  |  |  | Ab61 (antibody, human IgG1, V domains shown) VH: EVQLVQSGAEVKKPGATVKISCKVSGYTFITYWISWVQQAPGKGLEWMGAIDPSDSDARYSPSFQGRVTITADTSTDTAYMELSSLRSEDTAVYYCAKSDPGYSGYSLLYGFDSWGQGTLVTVSS VL: DVVMTQSPLSLPVTLGQPASISCRSSQSLVQRNANTYLSWYQQRPGQSPRLLIYQVSNRYSGVPDRFSGSGSGTDFTLKISRVEAEDVGVYYCGQGAHLPLTFGQGTKVEIK |
